Assay results taken from US20090214574A1.

What was measured:
[1] = target: native CD16A on human peripheral blood NK cells (human) (UniProt P08637); assay: cell-based or functional assay
CD16B-Fc^NA1 (human) [2] = target: CD16B-Fc^NA1 (human) (UniProt O75015); assay: SPR, BIAcore 2000, antigen immobilized
CD16B-Fc^NA2 (human) [3] = target: CD16B-Fc^NA2 (human) (UniProt O75015); assay: SPR, BIAcore 2000, antigen immobilized
CD16B-Fc^SH (human) [4] = target: CD16B-Fc^SH (human) (UniProt O75015); assay: SPR, BIAcore 2000, antigen immobilized
CD16B-Fc^SH (human), sequence (O75015 17-200 N65S/A78D): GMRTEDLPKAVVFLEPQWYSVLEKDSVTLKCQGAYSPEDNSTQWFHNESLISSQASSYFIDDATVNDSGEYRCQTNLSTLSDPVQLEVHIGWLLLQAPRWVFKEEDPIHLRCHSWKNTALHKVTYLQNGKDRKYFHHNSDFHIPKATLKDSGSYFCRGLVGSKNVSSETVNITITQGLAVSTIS

[5] = target: human CD16A-Fc^48R/158F fusion protein (human) (UniProt P08637); assay: SPR, BIAcore 2000, antigen immobilized
human CD16A-Fc^48R/158F fusion protein (human), sequence (P08637 17-208): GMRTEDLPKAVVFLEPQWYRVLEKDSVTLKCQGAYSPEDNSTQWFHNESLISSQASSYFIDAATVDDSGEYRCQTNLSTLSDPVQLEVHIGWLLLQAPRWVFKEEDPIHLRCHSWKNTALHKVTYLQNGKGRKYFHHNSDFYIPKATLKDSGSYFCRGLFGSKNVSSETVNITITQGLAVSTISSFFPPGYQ

[6] = target: human CD16A-Fc^48R/158V fusion protein (human) (UniProt P08637); assay: SPR, BIAcore 2000, antigen immobilized
human CD16A-Fc^48R/158V fusion protein (human), sequence (P08637 17-208 L66R/F176V limits assumed): as the sequence (P08637 17-208) above, with L50R, F160V counted along it

CD16B-Fc^NA1 (human) [7] = target: CD16B-Fc^NA1 (human) (UniProt O75015); assay: SPR, BIAcore 2000, antigen immobilized, koff/kon
CD16B-Fc^NA2 (human) [8] = target: CD16B-Fc^NA2 (human) (UniProt O75015); assay: SPR, BIAcore 2000, antigen immobilized, koff/kon
CD16B-Fc^SH (human) [9] = target: CD16B-Fc^SH (human) (UniProt O75015); assay: SPR, BIAcore 2000, antigen immobilized, koff/kon
[10] = target: human CD16A-Fc^48R/158F fusion protein (human) (UniProt P08637); assay: SPR, BIAcore 2000, antigen immobilized, koff/kon
[11] = target: human CD16A-Fc^48R/158V fusion protein (human) (UniProt P08637); assay: SPR, BIAcore 2000, antigen immobilized, koff/kon
[12] = target: human CD16A-Fc^48R/158V fusion protein (human) (UniProt P08637); assay: SPR, BIAcore 2000, CD16A-Fc immobilized on CM5, koff/kon
[13] = target: human CD16A-Fc^48R/158V fusion protein (human) (UniProt P08637); assay: SPR, BIAcore 2000, CD16A-Fc immobilized on CM5, 1:1 Langmuir

CD16B-Fc^NA1 (human), sequence (O75015 other isoform, or with tags, fused parts or gaps): as the sequence (O75015 17-200 N65S/A78D) above, with S20R, S49N, D62A, N66D, I90V counted along it
CD16B-Fc^NA2 (human), sequence (O75015 17-200 N65S): as the sequence (O75015 17-200 N65S/A78D) above, with D62A counted along it
native CD16A on human peripheral blood NK cells (human), sequence (P08637 17-254): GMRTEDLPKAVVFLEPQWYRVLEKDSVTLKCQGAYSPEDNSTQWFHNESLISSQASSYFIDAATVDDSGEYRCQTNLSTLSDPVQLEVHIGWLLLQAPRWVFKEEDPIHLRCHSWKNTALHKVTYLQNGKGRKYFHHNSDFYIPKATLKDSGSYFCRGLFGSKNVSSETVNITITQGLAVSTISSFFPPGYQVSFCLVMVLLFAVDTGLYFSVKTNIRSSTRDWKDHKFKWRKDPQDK

anti-CD16 murine monoclonal antibody A9
lysis of P815 targets by NK cells (calcein release), 1 µg/mL antibody [1]: 65% | koff (CD16B-Fc^NA1 (human) [2]): 0.000487 s⁻¹ | kon (CD16B-Fc^NA1 (human) [2]): 77200 M⁻¹ s⁻¹ | koff (CD16B-Fc^NA2 (human) [3]): 0.000478 s⁻¹ | kon (CD16B-Fc^NA2 (human) [3]): 75700 M⁻¹ s⁻¹ | koff (CD16B-Fc^SH (human) [4]): 0.000528 s⁻¹ | kon (CD16B-Fc^SH (human) [4]): 77900 M⁻¹ s⁻¹ | koff [5]: 0.00038 s⁻¹ | kon [5]: 99400 M⁻¹ s⁻¹ | koff [6]: 0.000406 s⁻¹ | kon [6]: 78600 M⁻¹ s⁻¹ | Kd (CD16B-Fc^NA1 (human) [7]): 8.91 nM | Kd (CD16B-Fc^NA2 (human) [8]): 9.63 nM | Kd (CD16B-Fc^SH (human) [9]): 11.4 nM | Kd [10]: 3.82 nM | Kd [11]: 5.17 nM | Kd [12]: 1.75 nM | koff [13]: 0.000177 s⁻¹ | kon [13]: 101000 M⁻¹ s⁻¹
